Reference: patent publication CN1905899A (dated 2007)

Target: T1, EphA2 on cells (MDA-MB-231, MCF-10A, A549, MCF-7 EphA2 transfectants, prostate cancer tissue) (human, UniProt P29317 24-976)
T1 construct: whole, on cells; The other cells are human cell lines; also called EphA2受体
Experiment: immunofluorescence staining of cells

T1 sequence (P29317 24-976): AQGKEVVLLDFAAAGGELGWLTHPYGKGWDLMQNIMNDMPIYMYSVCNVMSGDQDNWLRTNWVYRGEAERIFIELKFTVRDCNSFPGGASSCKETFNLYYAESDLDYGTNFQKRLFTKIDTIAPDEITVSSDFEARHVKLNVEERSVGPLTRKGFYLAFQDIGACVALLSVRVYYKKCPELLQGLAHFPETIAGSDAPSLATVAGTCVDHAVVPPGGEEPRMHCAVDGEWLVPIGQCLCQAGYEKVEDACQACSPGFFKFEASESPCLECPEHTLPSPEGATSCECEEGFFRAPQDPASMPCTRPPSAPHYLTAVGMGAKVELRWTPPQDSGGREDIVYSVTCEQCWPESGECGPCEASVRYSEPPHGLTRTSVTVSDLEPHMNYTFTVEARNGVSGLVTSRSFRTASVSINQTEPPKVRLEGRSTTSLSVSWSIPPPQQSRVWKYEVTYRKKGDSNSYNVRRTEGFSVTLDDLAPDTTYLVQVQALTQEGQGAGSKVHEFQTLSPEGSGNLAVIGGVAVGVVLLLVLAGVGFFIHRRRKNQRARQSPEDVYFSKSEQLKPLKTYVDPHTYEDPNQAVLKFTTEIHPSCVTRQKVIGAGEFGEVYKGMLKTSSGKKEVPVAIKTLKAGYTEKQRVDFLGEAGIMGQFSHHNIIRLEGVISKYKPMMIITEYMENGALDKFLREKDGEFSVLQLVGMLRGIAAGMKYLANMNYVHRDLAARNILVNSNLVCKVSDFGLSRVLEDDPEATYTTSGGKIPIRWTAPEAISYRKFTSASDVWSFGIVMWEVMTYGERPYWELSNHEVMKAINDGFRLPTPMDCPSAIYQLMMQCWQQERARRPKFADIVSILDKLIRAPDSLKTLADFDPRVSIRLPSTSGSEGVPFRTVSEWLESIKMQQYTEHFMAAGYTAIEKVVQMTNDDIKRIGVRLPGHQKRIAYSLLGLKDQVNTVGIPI

binding result: binds
B1: EA2 anti-EphA2 monoclonal antibody (hybridoma strain EA2.31, ATCC PTA-4380) (antibody, V domains shown)
VH: DVKLVESGGGLVKPGGSLKLSCAASGFTFSSYTMSWVRQTPEKRLEWVATISSGGTYTYYPDSVKGRFTISRDNAKNTLYLQMSSLKSEDTAMYYCTREAIFTYWGQGTLVTVSA
VL: DIKMTQSPSSMYASLGERVTITCKASQDINNYLSWFQQKPGKSPKTLIYRANRVDGVPSRFSGSGSGQDYSLTISSLEYEDMGIYYCLKYDEFPYTFGGGTKLEIK
notes: Mouse hybridoma monoclonal
